Reference: patent US20250275560A1, “PROCESS OF MAKING GINGEROL COMPOUNDS AND THEIR USE AS FLAVOR MODIFIERS” (Firmenich SA, priority 2021, published 2025)

How the values were obtained:
[1] = Determination of the enzyme activities for ethyl-2-oxo-4-phenylbutyrate with enzyme lysate (NADH absorption decrease at 340 nm); type: biochemical; conditions: enzyme lysate of recombinant RB791 cells, per wet cell mass; room temperature, pH 7.0, 0.3 mM NADH, 1 mM ethyl-2-oxo-4-phenylbutyrate; mean of at least three measurements
Method: Enzyme lysates (10% [w/v] and 20% [w/v] wet cell mass) were used to determine the enzyme activities. Enzyme lysates were prepared in TEA buffer (100 mM triethanolamine pH 7.0, 2 mM MgCl2). 0.1 g or 0.2 g wet cell mass was completely resuspended in 1 ml TEA buffer. The cells were disrupted in 2 ml reaction vessels by adding a 0.5 ml corresponding volume of glass beads at 24 Hz for 10 minutes in a vibrating mill (Retsch, MM200). The cell lysate was then sedimented in a tabletop centrifuge at 7500×g for 60 seconds. The cell-free supernatant, the enzyme lysate, was used immediately to determine the activity.
The activity was measured at room temperature in a reaction volume of 1 ml in a semi-micro cuvette (layer thickness 1 cm). The reaction mixture was composed as follows: 100 mM triethanolamine pH 7.0, 2 mM MgCl2, 0.3 mM NADH and 1 mM ethyl-2-oxo-4-phenylbutyrate (CAS No. 64920 29 2)
The reaction was started by adding 15 μL or 25 μL of enzyme lysate diluted in TEA buffer. The individual dilution was chosen for each enzyme lysate in such a way that a linear decrease in absorption at 340 nm could be recorded over a period of 30 seconds (UV-Vis spectrophotometer, Shimadzu). […] Each measurement was carried out at least three times and the mean values were determined. […] (SEQ ID NO: 1) or Weizmannia coagulans (SEQ ID NO: 3), respectively, enzyme activities of 1825 U/g and 71 U/g were determined.

[2] = Characterization of oxidoreductases with regard to reduction of [6]-gingerol to the (3R,5S)-alcohol (HPLC); type: biochemical; conditions: recombinant E. coli enzyme suspension, NADH, 2-propanol, 25° C., 24 hours; for Ratio: 3S,5S/3R,5S (%) - 3R,5S share / Ratio: 3S,5S/3R,5S (%) - 3S,5S share: 2 mg [6]-gingerol; for Conversion (%): conversion of [6]-gingerol
Method: The oxidoreductases with the polypeptide sequences SEQ ID NO: 1 and SEQ ID NO: 3 were examined by the following method to determine the conversion rate and diasterioselectivity by reducing [6]-gingerol to the corresponding (3R, 5S)-alcohol:
Recombinant Escherichia coli cells which carry the genes of the oxidoreductases SEQ ID NO: 1 or SEQ ID NO: 3 were cultivated as described in Example 2. To produce an enzyme suspension, 1 g wet cells were completely resuspended with TEA buffer (100 mM triethanolamine pH 7.0, 2 mM MgCl2) in a total volume of 5 mL and then mixed until homogeneous by adding 5 mL glycerol solution (80% [v/v] in TEA buffer). In the reaction setup, 2 mg [6]-gingerol per […] of this enzyme suspension were added to 160 μL KPP buffer (100 mM potassium phosphate buffer, pH 7.5, 1 mM MgCl2), together with 0.0035 g NADH and 20 μL 2-propanol. After incubating the samples at 25° C. and 1200 rpm for 24 hours, the reaction solutions were extracted with 1 ml each of […] and centrifuged. 250 μL of the extract were removed and dried. Then 1 ml acetonitrile was added and analyzed by means of HPLC. A Luna PFP (2) column (150×3 mm) from Phenomenex (Germany) was used for detecting the conversion of [6]-gingerol and the diastereomers formed.

Row | Molecule | enzyme activity [1] | Ratio: 3S,5S/3R,5S (%) - 3R,5S share [2] | Ratio: 3S,5S/3R,5S (%) - 3S,5S share [2] | Conversion (%) [2]
1 | SEQ ID NO: 1: KRED polypeptide isolated from Bacillus sp, 248 amino acids, expressed recombinantly in Escherichia coli (protein, listed as Bacillus sp.) MSGRVAVITGAGSGIGRETCLTFARKGEKVVVADINEEKGLETTELVKAEGGEAVFVNTDVSKFEEVEALVDQAVETYGSIDIMFNNAGIGKMGHVLSLNIEDYLHVIDVNQHGVAYGIIAAGRKMRDLDIKGVIINSASVFGYLANFGTFPYQASKGAVRMMTQNAALELSQYGIRVVGIAPGSVDTSIIQAYKDAGMTQKMKEQQMRKELIRPEAIANAVYLLTLEEADVINGSVVMLDDGYASFK | 1825 U/g | 95.5% | 4.5% | >71%
2 | SEQ ID NO: 3: KRED polypeptide isolated from Weizmannia coagulans, 248 amino acids, expressed recombinantly in Escherichia coli (protein, Weizmannia coagulans, KRED polypeptide isolated from Weizmannia coagulans, 248 amino acids, expressed recombinantly in Escherichia coli) MSGRVAVITGAGSGIGWETSLTFARKGDSVVVADIDEEKGLETVELIKQEGGDAVFAKTDVSKFEEVESLVNQAVEIYGTIDVMFNNAGIGTLGHILSKKIEDYLRVIDVNQHGVAYGIIAAGRKMRELDVKGVIINTASVFGYLANFGTFPYQAAKGAVRMMTQNAALELAQYGIRVVGIAPGCVDTPIIQAYKDAGMTQKMTEQQMRKKLIRPEAIANAVYLLTLEEADAINGSVVMLDDGYASFK | 71 U/g | 98.6% | 1.4% | >84%
